Assay results as given in doi:10.1101/2021.10.05.463282 (2021).

B1: B8 Fab (Fab, V domains shown)
VH: EVQLVQSGAEVKKPGSSVKVSCKASGGTFSNYGISWVRQAPGQGLEWMGRILPTFGTANSAQKFQGRVTITADESTGTAYMELRSLRSEDTAVYYCAKEGLAFLGYGMDVWGQGTTVTVSS
VL: EIVLTQSPGTLSLSPGERATLSCRASQSVSSYLAWYQQKPGQAPRLLIYDASNRATGIPARFIGSGSGTDFTLTISSLEPEDFAVYFCQQRSNWPLTFGGGTKVEIK
B2: B8-mIgA1 (antibody, V domains shown)
VH: EVQLVQSGAEVKKPGSSVKVSCKASGGTFSNYGISWVRQAPGQGLEWMGRILPTFGTANSAQKFQGRVTITADESTGTAYMELRSLRSEDTAVYYCAKEGLAFLGYGMDVWGQGTTVTVSS
VL: EIVLTQSPGTLSLSPGERATLSCRASQSVSSYLAWYQQKPGQAPRLLIYDASNRATGIPARFIGSGSGTDFTLTISSLEPEDFAVYFCQQRSNWPLTFGGGTKVEIK
B3: B8-mIgA2 (antibody, V domains shown)
VH: EVQLVQSGAEVKKPGSSVKVSCKASGGTFSNYGISWVRQAPGQGLEWMGRILPTFGTANSAQKFQGRVTITADESTGTAYMELRSLRSEDTAVYYCAKEGLAFLGYGMDVWGQGTTVTVSS
VL: EIVLTQSPGTLSLSPGERATLSCRASQSVSSYLAWYQQKPGQAPRLLIYDASNRATGIPARFIGSGSGTDFTLTISSLEPEDFAVYFCQQRSNWPLTFGGGTKVEIK
B4: B8-dIgA1 (antibody, V domains shown)
VH: EVQLVQSGAEVKKPGSSVKVSCKASGGTFSNYGISWVRQAPGQGLEWMGRILPTFGTANSAQKFQGRVTITADESTGTAYMELRSLRSEDTAVYYCAKEGLAFLGYGMDVWGQGTTVTVSS
VL: EIVLTQSPGTLSLSPGERATLSCRASQSVSSYLAWYQQKPGQAPRLLIYDASNRATGIPARFIGSGSGTDFTLTISSLEPEDFAVYFCQQRSNWPLTFGGGTKVEIK
B5: B8-dIgA2 (antibody, V domains shown)
VH: EVQLVQSGAEVKKPGSSVKVSCKASGGTFSNYGISWVRQAPGQGLEWMGRILPTFGTANSAQKFQGRVTITADESTGTAYMELRSLRSEDTAVYYCAKEGLAFLGYGMDVWGQGTTVTVSS
VL: EIVLTQSPGTLSLSPGERATLSCRASQSVSSYLAWYQQKPGQAPRLLIYDASNRATGIPARFIGSGSGTDFTLTISSLEPEDFAVYFCQQRSNWPLTFGGGTKVEIK
B6: B8-IgG1 (antibody, V domains shown)
VH: EVQLVQSGAEVKKPGSSVKVSCKASGGTFSNYGISWVRQAPGQGLEWMGRILPTFGTANSAQKFQGRVTITADESTGTAYMELRSLRSEDTAVYYCAKEGLAFLGYGMDVWGQGTTVTVSS
VL: EIVLTQSPGTLSLSPGERATLSCRASQSVSSYLAWYQQKPGQAPRLLIYDASNRATGIPARFIGSGSGTDFTLTISSLEPEDFAVYFCQQRSNWPLTFGGGTKVEIK

molecular target: SARS-CoV-2 spike ectodomain trimer (SARS-CoV-2, ancestral (Wuhan-Hu-1) …, UniProt P0DTC2); assay: cryo-EM structure

Row | Binder | binding result
1 | B1 | binds

molecular target: recombinant trimeric spike protein derived from SARS-CoV-2 (Sino Biological) (SARS-CoV-2, ancestral (Wuhan-Hu-1) …, UniProt P0DTC2); assay: ELISA

Row | Binder | binding result
2 | B2 | binds
3 | B3 | binds
4 | B4 | binds
5 | B5 | binds
6 | B6 | binds
